Common to all, as to conditions: 20 nM; 72 h
The test system of series [1] is MCF10A. Kind of series: 5+ nucleoli phenotype percent effect (relative to siNT 0% and siKIF11 100%); higher = more cells with five or more nucleoli. The protocol: (§1)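 After 72 h, cells were fixed and stained with Hoechst and anti-fibrillarin, and nucleoli per nucleus were counted with CellProfiler. Values are plate-adjusted percent effect for the one-nucleolus and 5+ nucleoli phenotypes, normalised to siNT (0%) and to the positive controls siNOL11 or siKIF11 (100%), as the mean of biological triplicates. Percent viability is the nuclei count relative to siNT.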

The subject of series [2] is MCF10A. Kind of series: one-nucleolus phenotype percent effect (relative to siNT 0% and siNOL11 100%); higher = more cells with one nucleolus (ribosome biogenesis inhibition). The protocol:
as §1

Series [3] deals with MCF10A. Kind of series: percent viability (nuclei count relative to siNT); higher = more viable cells. The protocol: as §1

“AGCUCGGUCUGAGGCCCCUCAGU [hsa-miR-423-3p]”: the “5+ nucleoli phenotype percent effect” value with MCF10A [1] is -11.8%. The “one-nucleolus phenotype percent effect” value in the series on MCF10A [2] turned out to be 19.5%. The percent viability with MCF10A [3] stood at 56.6%.

As to AAAGCUGGGUUGAGAAGG [hsa-miR-320e], in the series on MCF10A [1], the “5+ nucleoli phenotype percent effect” value was 2.27%. Moreover, the “one-nucleolus phenotype percent effect” value in the series with MCF10A [2] was determined as 3.44%. Also, the percent viability with MCF10A [3] turned out to be 28.6%.

“GGUGGUUGAGGCUGCAGUAAGU [hsa-miR-1273g-5p]”: the “5+ nucleoli phenotype percent effect” value with MCF10A [1] was 22.4%. Besides, the “one-nucleolus phenotype percent effect” value in the series on MCF10A [2] was -13.4%. Moreover, in the series on MCF10A [3], the percent viability stood at 49.2%.

Turning to “AUCGUGCAUCCCUUUAGAGUGU [hsa-miR-517a-3p]”, the “5+ nucleoli phenotype percent effect” value with MCF10A [1] was -11.8%. The “one-nucleolus phenotype percent effect” value in the series with MCF10A [2] turned out to be 3.74%. Moreover, the percent viability with MCF10A [3] was found to be 46.8%.

Regarding “CAGGCAGAAGUGGGGCUGACAGG [hsa-miR-6511a-5p]”, in the series with MCF10A [1], the “5+ nucleoli phenotype percent effect” value was 3.66%. For the same sequence, in the series with MCF10A [2], the “one-nucleolus phenotype percent effect” value came to 6.88%. Moreover, in the series on MCF10A [3], the percent viability was determined as 69.3%.

As to AAAAGCUGGGCUGAGAGGCG [hsa-miR-4429], in the series on MCF10A [1], the “5+ nucleoli phenotype percent effect” value was -19.2%. Besides, the “one-nucleolus phenotype percent effect” value with MCF10A [2] was found to be 24.9%. Moreover, the percent viability in the series on MCF10A [3] amounted to 38.6%.

With GGUGCAGUGCUGCAUCUCUGGU [hsa-miR-143-5p], in the series with MCF10A [1], the “5+ nucleoli phenotype percent effect” value was -0.693%. In the series on MCF10A [2], the “one-nucleolus phenotype percent effect” value is -7.79%. Besides, the percent viability in the series with MCF10A [3] is 89.5%.

CUGGGAGGUGGAUGUUUACUUC [hsa-miR-30b-3p]: the “5+ nucleoli phenotype percent effect” value in the series with MCF10A [1] was -27.8%. In the series on MCF10A [2], the “one-nucleolus phenotype percent effect” value came out at 39.4%. In the series with MCF10A [3], the percent viability is 12.9%.

For the sequence “UGAGGAUGGAUAGCAAGGAAGCC [hsa-miR-3605-5p]”, the “5+ nucleoli phenotype percent effect” value in the series on MCF10A [1] was 12%. Also, the “one-nucleolus phenotype percent effect” value in the series with MCF10A [2] is -3.45%. Besides, in the series with MCF10A [3], the percent viability came to 69.7%.

In the case of “UCUGGAUUGAAGAGACGACCCA [hsa-miR-6839-5p]”, the “5+ nucleoli phenotype percent effect” value with MCF10A [1] is -12.4%. Moreover, in the series with MCF10A [2], the “one-nucleolus phenotype percent effect” value was 2.28%. Also, in the series on MCF10A [3], the percent viability came out at 36.1%.

Take UGACUCUGCCUGUAGGCCGGU [hsa-miR-4522]: the “5+ nucleoli phenotype percent effect” value with MCF10A [1] was -19.6%. For the same sequence, the “one-nucleolus phenotype percent effect” value with MCF10A [2] was 23.6%. Besides, the percent viability in the series on MCF10A [3] turned out to be 16.2%.

Take CAGGGCUCAGGGAUUGGAUGGAG [hsa-miR-5088]: the “5+ nucleoli phenotype percent effect” value in the series with MCF10A [1] stood at 20.4%. Moreover, the “one-nucleolus phenotype percent effect” value with MCF10A [2] was -7.65%. The percent viability with MCF10A [3] turned out to be 77.7%.

Take “CAAAGGCCACAUUCUCCUGUGCAC [hsa-miR-6768-3p]”: the “5+ nucleoli phenotype percent effect” value with MCF10A [1] is -27.1%. Further, the “one-nucleolus phenotype percent effect” value with MCF10A [2] was 28%. Also, the percent viability in the series on MCF10A [3] came out at 23.3%.

In the case of “AUCCUCUCUUCCCUCCUCCCAG [hsa-miR-7111-3p]”, the “5+ nucleoli phenotype percent effect” value with MCF10A [1] was -40%. Besides, the “one-nucleolus phenotype percent effect” value with MCF10A [2] was found to be 3.35%. Besides, the percent viability in the series on MCF10A [3] came out at 47.3%.

For the sequence ACGCCCUUCCCCCCCUUCUUCA [hsa-miR-1249], the “5+ nucleoli phenotype percent effect” value in the series on MCF10A [1] was 29.3%. For the same sequence, the “one-nucleolus phenotype percent effect” value with MCF10A [2] is -13.3%. Further, in the series on MCF10A [3], the percent viability was 85.3%.

Regarding CUAAGAAGUUGACUGAAG [hsa-miR-3653], the “5+ nucleoli phenotype percent effect” value with MCF10A [1] is -37.5%. In the series on MCF10A [2], the “one-nucleolus phenotype percent effect” value was determined as 49.1%. Besides, in the series with MCF10A [3], the percent viability is 42%.

On to “CAAAAGUGAUUGUGGUUUUUGC [hsa-miR-548az-5p]”, for which the “5+ nucleoli phenotype percent effect” value in the series on MCF10A [1] worked out at 45.1%. In addition, in the series on MCF10A [2], the “one-nucleolus phenotype percent effect” value was -15.6%. Further, in the series with MCF10A [3], the percent viability worked out at 149%.

Turning to “UAAAUAGAGUAGGCAAAGGACA [hsa-miR-3121-3p]”, in the series with MCF10A [1], the “5+ nucleoli phenotype percent effect” value amounted to 15.6%. The “one-nucleolus phenotype percent effect” value in the series with MCF10A [2] is -18%. The percent viability in the series with MCF10A [3] was determined as 49.3%.

For “AUCGUGCAUCCUUUUAGAGUGU [hsa-miR-517c-3p]”, the “5+ nucleoli phenotype percent effect” value in the series on MCF10A [1] was -11.3%. Also, the “one-nucleolus phenotype percent effect” value with MCF10A [2] was found to be 11.8%. In the series with MCF10A [3], the percent viability stood at 41.6%.

On to UGACCUGGGACUCGGACAGCUG [hsa-miR-3661], for which the “5+ nucleoli phenotype percent effect” value with MCF10A [1] was -25.2%. For the same sequence, the “one-nucleolus phenotype percent effect” value in the series on MCF10A [2] was 35.2%. In addition, the percent viability in the series on MCF10A [3] is 31.7%.

On to “CCCAGGGCUUGGAGUGGGGCAAGGUU [hsa-miR-4685-5p]”, for which the “5+ nucleoli phenotype percent effect” value with MCF10A [1] was found to be 15%. In addition, the “one-nucleolus phenotype percent effect” value in the series with MCF10A [2] was found to be 9.96%. For the same sequence, in the series with MCF10A [3], the percent viability was found to be 69.2%.

Consider GGGGGGAUGUGCAUGCUGGUU [hsa-miR-4525], for which, in the series with MCF10A [1], the “5+ nucleoli phenotype percent effect” value is -7.81%. In the series on MCF10A [2], the “one-nucleolus phenotype percent effect” value was determined as 22.7%. Besides, in the series on MCF10A [3], the percent viability was 26.2%.

On to “ACUUGGGCAGGAGGGACCCUGUAUG [hsa-miR-6774-5p]”, for which, in the series with MCF10A [1], the “5+ nucleoli phenotype percent effect” value is -35.9%. Also, in the series on MCF10A [2], the “one-nucleolus phenotype percent effect” value amounted to 31.5%. In the series on MCF10A [3], the percent viability was 22%.

Regarding UGCCCAUGCCAUACUUUUGCCUCA [hsa-miR-4641], the “5+ nucleoli phenotype percent effect” value in the series with MCF10A [1] came to 7.52%. The “one-nucleolus phenotype percent effect” value in the series on MCF10A [2] came out at 5.53%. The percent viability in the series with MCF10A [3] was 78.6%.
